Test results reported in patent publication US20200330603A1, “PEPTIDES FOR RENAL THERAPY” (FRED HUTCHINSON CANCER RESEARCH CENTER, priority 2015, published 2020).
Several values for one entry are separate records, joined by “and”; a condition that tells them apart may be missing. Equal values may be shown once.

Columns and labels:
[1] = Blood urea nitrogen (BUN) assay in plasma, renal biocompatibility (Example 4); assay type: in vivo, mice; conditions: 100 nmol per mouse intravenously, after 24 hours, one value per mouse
Experimental: This example describes renal biocompatibility of peptides of this disclosure. The peptides of SEQ ID NO: 18, SEQ ID NO: 20, SEQ ID NO: 21, SEQ ID NO: 26, SEQ ID NO: 36, SEQ ID NO: 39, SEQ ID NO: 45 and SEQ ID NO: 53 were intravenously dosed into mice at 100 nmol per mouse. After 24 hours, mice were anesthesized with Ketamine-Xylazine and euthanized. Plasma and kidneys were removed as quickly as possible after euthanization. A blood urea nitrogen (BUN) assay was performed to assess renal toxicity with a commercially available kit.
The average BUN concentration in plasma for naïve mice was 25 mg/dL, with a standard error of 2 mg/dL. The average BUN concentration in plasma for peptide-dosed mice was 21, with a standard error of 1 mg/dL.

[2] = Kidney histology, periodic acid Schiff (PAS) stain; assay type: in vivo, mice; conditions: 24 hours after intravenous administration of 100 nmol
Experimental: (§1) This example illustrates assessment of renal injury by peptides of this disclosure. Mice were injected intravenously at a dose of 100 nmol, which is approximately 16 mg/kg. PBS was administered as a negative control. At 24 hours post-peptide administration, mice were euthanized and plasma blood urea nitrogen (BUN) and plasma creatinine were measured. The blood urea nitrogen (BUN) assay was performed to assess renal toxicity with a commercially available kit. Plasma creatinine concentrations were determined using the colorimetrically corrected Jaffe reaction method. Additionally, the kidneys from these mice were removed, sectioned, and stained using periodic acid Schiff (PAS). […] Histological analysis corroborated the mRNA/protein data.

[3] = Plasma BUN, assessment of renal injury (Example 14); assay type: in vivo, mice; conditions: Table 3; 100 nmol iv (approximately 16 mg/kg), 24 hours post-peptide administration
Experimental: as §1

[4] = Plasma creatinine, Jaffe reaction method (Example 14); assay type: in vivo, mice; conditions: Table 3; 100 nmol iv, 24 hours post-peptide administration
Experimental: as §1

[5] = Temperature stability at 70° C., RP-HPLC; assay type: physicochemical; conditions: non-reducing conditions, 70° C. for 1 hour
Experimental: (§2) This example describes peptide stability in the presence of pepsin, trypsin, a reducing agent, or elevated temperature. Peptides were first suspended in 500 µl of ddH2O to a stock concentration of 2 mg/ml. […] These reactions were then quenched with 5 μg of soybean trypsin inhibitor (I) and, in some cases, 10 mM dithiothreitol (DTT). […] Temperature stability was tested by incubating peptides in non-reducing conditions at 70° C. for 1 hour. Stability was evaluated by RP-HPLC.

pepsin = test: Peptide stability in the presence of pepsin, RP-HPLC; assay type: in vitro ADME; conditions: 20 μg pepsin, pH 1.05, 30 minutes at 37.5° C.
Experimental: as §2

trypsin = test: Peptide stability in the presence of trypsin, RP-HPLC; assay type: in vitro ADME; conditions: 5 μg trypsin, pH 7.0, 30 minutes at 37.5° C.
Experimental: as §2

[6] = Peptide stability to a reducing agent (DTT), RP-HPLC; assay type: physicochemical; conditions: 10 mM DTT in PBS, room temperature, 30 minutes
Experimental: as §2

[7] = Whole body autoradiography of 14C labeled peptides, renal cortex and blood; assay type: in vivo, mice; conditions: for Signal ratio Kidney:Blood (3 hours) / Signal ratio Kidney:Blood (24 hours): renal cortex vs blood from the ventricle, 100 nmol iv; for Pixel density-Bkg/area (3 hours) / Pixel density-Bkg/area (24 hours): renal cortex, 100 nmol 14C labeled peptide iv
From the text: This example describes radiolabeling of peptides of this disclosure. Several knotted peptides were radiolabeled by reductive methylation with ^14C formaldehyde and sodium cyanoborohydride with standard techniques. The sequences were engineered to have the amino acids, “G” and “S” at the N terminus. See Methods in Enzymology V91:1983 p. 570 and JBC 254(11):1979 p. 4359. An excess of formaldehyde was used to ensure complete methylation (dimethylation of every free amine). The labeled peptides were isolated via solid-phase extraction on Strata-X columns (Phenomenex 8B-S100-AAK), rinsed with water with 5% methanol, and recovered in methanol with 2% formic acid. Solvent was subsequently removed in a blowdown evaporator with gentle heat and a stream of nitrogen gas. The final product was verified and characterized by high performance liquid chromatography (HPLC).
This example illustrates accumulation of peptides of the present disclosure in kidneys measured by whole body autoradiography. Peptides of the present disclosure were radiolabeled as described in EXAMPLE 2. 100 nmol of ^14C labeled peptides were administered intravenously in mice. Radiolabeled peptide signal was quantified in the renal cortex and blood from the ventricle in 2-3 sections per mouse in 2 mice total. Whole body autoradiography analysis was performed with AIDA.
SEQ ID NO: 55 and SEQ ID NO: 119 ([…]), a linearized version of SEQ ID NO: 55, were radiolabeled with ^14C as described in EXAMPLE 2 and administered intravenously in mice at a dose of 100 nmol. Radiolabeled peptide signal was quantified in the renal cortex and blood from the ventricle in 2-3 sections per mouse in 2 mice total. Whole body autoradiography analysis was performed with AIDA.

## GGYSRCQLQGFNCVVRSYGLPTIPCCRGLTCRSYFPGSTYGRCQRY [SEQ ID NO: 53]
[1]
  Peptide BUN: 19 mg/dL and 22 mg/dL
[2]
  renal physiology (PAS histology, FIG. 24): normal renal physiology
[3]
  Plasma BUN: 20.5 mg/dL
[4]
  Plasma Creatinine: 0.35 mg/dL

## GSACLAEYQKCEGSTVPCCPGLSCSAGRFRKTKLCTK [SEQ ID NO: 32]
[5]
  Temperature (70° C.): Resistant
pepsin
  Pepsin: Resistant
trypsin
  Trypsin: Not Resistant
[6]
  Reduction: Not Resistant

## GSACQFWSCNSSCISRGYRQGYCWGIQYKYCQCQ [SEQ ID NO: 34]
trypsin
  Trypsin: Partially Resistant
[6]
  Reduction: Not Resistant

## GSAEIIRCSGTRECYAPCQKLTGCLNAKCMNKACKCYGCV [SEQ ID NO: 28]
trypsin
  Trypsin: Not Resistant
[6]
  Reduction: Partially Resistant

## GSAVCNLKRCQLSCRSLGLLGKCIGDKCECVKHG [SEQ ID NO: 22]
trypsin
  Trypsin: Partially Resistant
[6]
  Reduction: Not Resistant

## GSCIGEGVPCDENDPRCCFGLVCLKPTLHGIWYKSYYCYKK [SEQ ID NO: 30]
trypsin
  Trypsin: Partially Resistant
[6]
  Reduction: Not Resistant

## GSDCLPHLRRCRADNDCCGRRCRRRGTNAERRCR [SEQ ID NO: 1]
trypsin
  Trypsin: Partially Resistant
[6]
  Reduction: Not Resistant

## GSDRDSCIDKSRCSKYGYYQECQDCCKKAGHNGGTCMFFKCKCA [SEQ ID NO: 21]
[1]
  Peptide BUN: 23 mg/dL and 17 mg/dL
[2]
  renal physiology (PAS histology, FIG. 24): normal renal physiology
[3]
  Plasma BUN: 20 mg/dL
[4]
  Plasma Creatinine: 0.33 mg/dL
trypsin
  Trypsin: Partially Resistant
[6]
  Reduction: Not Resistant

## GSECLEIFKACNPSNDQCCKSSKLVCSRKTRWCKYQIG [SEQ ID NO: 38]
[5]
  Temperature (70° C.): Resistant
pepsin
  Pepsin: Resistant
trypsin
  Trypsin: Not Resistant
[6]
  Reduction: Not Resistant

## GSEVIRCSGSKQCYGPCKQQTGCTNSKCMNKVCKCYGCG [SEQ ID NO: 8]
[5]
  Temperature (70° C.): Resistant
trypsin
  Trypsin: Partially Resistant
[6]
  Reduction: Not Resistant

## GSGCFGYKCDYYKGCCSGYVCSPTWKWCVRPGPGR [SEQ ID NO: 16]
[5]
  Temperature (70° C.): Resistant
pepsin
  Pepsin: Not Resistant
trypsin
  Trypsin: Not Resistant
[6]
  Reduction: Not Resistant

## GSGDCLPHLRRCRENNDCCSRRCRRRGANPERRCR [SEQ ID NO: 59]
[7]
  Signal ratio Kidney:Blood (3 hours): 31.2
  Signal ratio Kidney:Blood (24 hours): 6.1
  Pixel density-Bkg/area (3 hours): 3.47E+07
  Pixel density-Bkg/area (24 hours): 2.13E+06

## GSGVPINVKCRGSRDCLDPCKKAGMRFGKCINSKCHCTP [SEQ ID NO: 11]
pepsin
  Pepsin: Resistant
trypsin
  Trypsin: Resistant
[6]
  Reduction: Resistant

## GSGVPINVRCRGSRDCLDPCRRAGMRFGRCINSRCHCTP [SEQ ID NO: 55]
[7]
  Signal ratio Kidney:Blood (3 hours): 42.2 and 42.4
  Signal ratio Kidney:Blood (24 hours): 10.7
  Pixel density-Bkg/area (3 hours): 2.73E+07
  Pixel density-Bkg/area (24 hours): 2.25E+06

## GSGVPINVRSRGSRDSLDPSRRAGMRFGRSINSRSHSTP [SEQ ID NO: 119, reference compound]
[7]
  Signal ratio Kidney:Blood (3 hours): 5.1
  Signal ratio Kidney:Blood (24 hours): 6.9
  Pixel density-Bkg/area (3 hours): 1.71E+06
  Pixel density-Bkg/area (24 hours): 2.41E+06

## GSISIGIKCSPSIDLCEGQCRIRKYFTGYCSGDTCHCSG [SEQ ID NO: 7]
[5]
  Temperature (70° C.): Resistant
trypsin
  Trypsin: Partially Resistant
[6]
  Reduction: Not Resistant

## GSNCAGYMRECKEKLCCSGYVCSSRWKWCVLPAPWRR [SEQ ID NO: 25]
trypsin
  Trypsin: Partially Resistant
[6]
  Reduction: Not Resistant

## GSNFKVEGACSKPCRKYCIDKGARNGKCINGRCHCYY [SEQ ID NO: 19]
trypsin
  Trypsin: Partially Resistant
[6]
  Reduction: Not Resistant

## GSQFCGTNGKPCVNGQCCGALRCVVTYHYADGVCLKMNP [SEQ ID NO: 23]
trypsin
  Trypsin: Partially Resistant
[6]
  Reduction: Not Resistant

## GSQIDTNVKCSGSSKCVKICIDRYNTRGAKCINGRCTCYP [SEQ ID NO: 27]
[5]
  Temperature (70° C.): Resistant
pepsin
  Pepsin: Not Resistant
trypsin
  Trypsin: Not Resistant
[6]
  Reduction: Not Resistant

## GSQVQTNVKCQGGSCASVCRREIGVAAGKCINGKCVCYRN [SEQ ID NO: 17]
trypsin
  Trypsin: Partially Resistant
[6]
  Reduction: Not Resistant

## GSQVQTNVRCQGGSCASVCRREIGVAAGRCINGRCVCYRN [SEQ ID NO: 58]
[7]
  Signal ratio Kidney:Blood (3 hours): 9.9
  Signal ratio Kidney:Blood (24 hours): 4.1
  Pixel density-Bkg/area (3 hours): 7.73E+06
  Pixel density-Bkg/area (24 hours): 1.30E+06

## GSQVSTNKKCSNTSQCYKTCEKVVGVAAGKCMNGKCICYP [SEQ ID NO: 37]
trypsin
  Trypsin: Partially Resistant
[6]
  Reduction: Not Resistant

## GSRPTDIKCSASYQCFPVCKSRFGKTNGRCVNGLCDCF [SEQ ID NO: 24]
trypsin
  Trypsin: Partially Resistant
[6]
  Reduction: Resistant

## GSSCAKPGEMCMRIKCCDGQCGCNRGTGRCFCK [SEQ ID NO: 31]
trypsin
  Trypsin: Partially Resistant
[6]
  Reduction: Not Resistant

## GSSCAKPRENCNRMNILCCRGECVCPTFGDCFCYGD [SEQ ID NO: 10]
[5]
  Temperature (70° C.): Resistant
pepsin
  Pepsin: Resistant
trypsin
  Trypsin: Not Resistant
[6]
  Reduction: Not Resistant

## GSSDYCSNDFCFFSCRRDRCARGDCENGKCVCKNCHLN [SEQ ID NO: 29]
trypsin
  Trypsin: Partially Resistant
[6]
  Reduction: Not Resistant

## GSSEKDCIKHLQRCRENKDCCSKKCSRRGTNPEKRCR [SEQ ID NO: 9]
trypsin
  Trypsin: Partially Resistant
[6]
  Reduction: Not Resistant

## GSSERDCIRHLQRCRENRDCCSRRCSRRGTNPERRCR [SEQ ID NO: 56]
[7]
  Signal ratio Kidney:Blood (3 hours): 29.9
  Signal ratio Kidney:Blood (24 hours): 7.5
  Pixel density-Bkg/area (3 hours): 1.48E+07
  Pixel density-Bkg/area (24 hours): 2.30E+06

## GSSFGLCRLRRGFCARGRCRFPSIPIGRCSRFVQCCRRVW [SEQ ID NO: 45]
[1]
  Peptide BUN: 21 mg/dL and 22 mg/dL
[2]
  renal physiology (PAS histology, FIG. 24): normal renal physiology
[3]
  Plasma BUN: 21.5 mg/dL
[4]
  Plasma Creatinine: 0.39 mg/dL

## GSVRIPVSCKHSGQCLKPCKDAGMRFGKCMNGKCDCTPK [SEQ ID NO: 12]
trypsin
  Trypsin: Not Resistant
[6]
  Reduction: Partially Resistant

## GSVRIPVSCRHSGQCLRPCRDAGMRFGRCMNGRCDCTPR [SEQ ID NO: 57]
[7]
  Signal ratio Kidney:Blood (3 hours): 8
  Signal ratio Kidney:Blood (24 hours): 6.4
  Pixel density-Bkg/area (3 hours): 4.63E+06
  Pixel density-Bkg/area (24 hours): 1.03E+06

## GSVVIGQRCYRSPDCYSACKKLVGKATGKCTNGRCDC [SEQ ID NO: 33]
[5]
  Temperature (70° C.): Resistant
pepsin
  Pepsin: Resistant
trypsin
  Trypsin: Not Resistant
[6]
  Reduction: Not Resistant
